Source: patent publication US20110038869A1 (Genmab, published 2011)
Changes are numbered by the printed parent chain. One block for each binder: values may come before it.

What was measured:
[1] = molecular target: T1, CD32bECDHis (human, UniProt P31994 43-223, limits assumed); assay: ELISA on coated CD32bECDHis
T1 construct: Produced in HEK-293F cells; also called extracellular domain of CD32b with C-terminal His tag; soluble CD32b
T1 sequence (looked up): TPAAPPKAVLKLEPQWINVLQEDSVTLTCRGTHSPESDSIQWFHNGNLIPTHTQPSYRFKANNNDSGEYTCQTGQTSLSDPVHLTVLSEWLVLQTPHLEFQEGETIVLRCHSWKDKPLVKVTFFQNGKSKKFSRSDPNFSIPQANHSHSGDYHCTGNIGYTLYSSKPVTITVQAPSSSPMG
Description: The specificity of the obtained anti-CD32b HuMabs was evaluated by ELISA. ELISA plates (Microlon; Greiner Bio-One) were coated overnight at 4° C. with 2 μg/ml of CD32aECDHis and CD32bECDHis in PBS, pH 7.4. Coated ELISA plates were washed with PBS, blocked for one hour at room temperature with 2% (v/v) chicken serum (Gibco, Paisley, Scotland) in PBS and washed again with PBS. Subsequently, HuMabs, serially diluted in PBSTC (PBS supplemented with 2% (v/v) chicken serum and 0.05% (v/v) Tween-20), were incubated for 1 hr at RT under shaking conditions (300 rpm). Bound HuMabs were detected using HRP-conjugated goat-anti-human IgG antibodies (Jackson ImmunoResearch Europe) diluted 1:10,000 in PBSTC, which were incubated for 1 hr at RT under shaking conditions (300 rpm). […] Binding curves were analyzed using non-linear regression (sigmoidal dose-response with variable slope) using GraphPad Prism V4.03 software.

[2] = molecular target: T2, full length CD32a on stably transfected IIA1.6 cells (human, UniProt P12318 34-317); assay: flow cytometry on IIA1.6-CD32a cells
T2 construct: whole, on cells; also called IIA1.6-CD32a; CD32a-expressing IIA1.6 cells
T2 sequence (looked up): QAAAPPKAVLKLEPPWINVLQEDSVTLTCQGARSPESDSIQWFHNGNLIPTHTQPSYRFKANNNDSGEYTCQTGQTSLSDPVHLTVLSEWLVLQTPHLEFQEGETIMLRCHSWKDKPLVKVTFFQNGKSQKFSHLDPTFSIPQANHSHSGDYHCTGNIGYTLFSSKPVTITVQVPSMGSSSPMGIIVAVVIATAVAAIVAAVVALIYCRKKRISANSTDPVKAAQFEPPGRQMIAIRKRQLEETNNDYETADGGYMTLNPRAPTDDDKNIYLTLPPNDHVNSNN
Description: (§1) After harvesting and counting, IIA1.6 cells stably transfected with full length CD32a and CD32b (van den Herik-Oudijk et al., 1994), control IIA1.6 cells and Daudi-luc cells were resuspended in PBS (1×10⁶ cells/ml). Cells were put in 96-well V-bottom plates (100 μl/well) and washed twice with FACS buffer (PBS supplemented with 0.1% BSA and 0.02% Na-azide). Thereafter, 50 μl of serially diluted HuMab in FACS buffer was added to the cells and incubated for 30 minutes at 4° C. After washing three times with FACS buffer, 50 μl of phycoerythrin (PE)-conjugated rabbit anti-human IgG (Jackson ImmunoResearch Europe), diluted 1:200 in FACS buffer, was added. After 30 minutes at 4° C. (in the dark), cells were washed three times, and specific binding of the HuMabs was detected by flow cytometry on a FACSCalibur (BD Biosciences). […] Binding curves were analyzed using non-linear regression (sigmoidal dose-response with variable slope) using GraphPad Prism V4.03 software (GraphPad Software, San Diego, Calif., USA).

[3] = molecular target: T3, full length CD32b2 on transfected IIA1.6 cells (human, UniProt P31994-2 43-291); assay: flow cytometry on IIA1.6-CD32b2 cells
T3 construct: whole, on cells; also called IIA1.6-CD32b2
T3 sequence (looked up): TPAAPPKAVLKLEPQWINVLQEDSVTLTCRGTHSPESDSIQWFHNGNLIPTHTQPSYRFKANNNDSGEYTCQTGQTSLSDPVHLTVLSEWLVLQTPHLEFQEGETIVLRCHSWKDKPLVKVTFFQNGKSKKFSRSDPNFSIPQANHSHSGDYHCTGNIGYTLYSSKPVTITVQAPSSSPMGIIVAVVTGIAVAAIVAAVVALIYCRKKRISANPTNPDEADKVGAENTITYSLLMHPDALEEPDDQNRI
Description: as §1
To analyze binding of anti-CD32b HuMabs to CD32b1 and CD32b2, IIA1.6 cells transfected with full length CD32b1 or CD32b2 (van den Herik-Oudijk et al., 1994) were prepared as described supra. The assay was performed as described supra. Flow cytometry was performed on a FACS Canto II (BD Biosciences).

[4] = molecular target: T1, CD32bECDHis; assay: TR-FRET competition against HuMab-KLH-AlexaFluor 647
From the text: To study the interaction of anti-CD32b HuMabs with CD32b and CD32a in more detail TR-FRET technology was applied. To this end, CD32bECDHis and CD32aECDHis were labeled with a fluorescent donor molecule directed against the histidine tag (Anti-6×His Europium3+, PerkinElmer, Boston Mass.).
Briefly, all dilutions were made in 0.5× Lance detection buffer (PerkinElmer, Boston Mass.) supplemented with 0.2% BSA (obtained via dilution of 7.5% BSA Stabilizer solution, cat: CR84-100, PerkinElmer) and 0.03% (v/v) Tween-20 (Riedel de Haen, Seelze, Germany). CD32bECDHis and CD32aECDHis were diluted to 0.5 μg/ml. […] Anti-6×His Europium3+ (PerkinElmer, Boston Mass.) was diluted to 0.15 μg/ml. A 4-fold serial dilution of the tested HuMab antibody was made in a 96 wells non-binding plate (cat. 650261, Greiner Bio-one, Frickenhausen, Germany), ranging from 10 μg/ml-0.04 ng/ml. […] After overnight incubation at 4° C. in the dark, fluorescence was measured using an EnVision 2101 Multilabel reader (PerkinElmer, Boston, Mass.) applying the following settings; Lance/Delfia dual mirror, emission filter 615-665 nm, excitation filter 320 nm, delay time 60 μs, window 100 μs, 100 flashes, 2000 μs per cycle and bidirectional row-by-row reading. Binding curves were analyzed using non-linear regression (sigmoidal dose-response with variable slope) using GraphPad Prism V4.03 software (GraphPad Software, San Diego, Calif., USA).

[5] = molecular target: T1, CD32bECDHis; assay: SPR BIAcore 3000, antibody immobilized, CD32bECDHis analyte
Description: Antibody binding to CD32a and CD32b was analyzed by surface plasmon resonance in a BIAcore 3000 (GE Healthcare). CD32aECDHis and CD32bECDHis derived from HEK293 cells were used for the analysis. HuMab antibodies were immobilized on the CM-5 sensor chip according to the procedure recommended by the manufacturer. Briefly, after surface activation by EDC and NHS HuMab antibody was injected over the activated CM-5 surface in 10 mM sodium-acetate, pH ranging from 4.0 to 5.5 at 5 μl/min. followed by 1 M Ethanolamine for deactivation. Concentration series of CD32bECDHis in HBS-EP buffer were injected over the immobilized antibodies at a flow rate of 30 μl/min for 180 sec. Regeneration of the HuMab surface was performed by injection of 10 mM Glycine-HCl pH 2.0 or 10 mM sodium acetate pH 3.0. […] Kinetic analysis is performed using double reference subtraction and model 1:1 (langmuir) binding analysis. Specificity was studied by injecting CD32aECDHis at a concentration of […] over immobilized HuMab and isotype control antibodies under the same conditions as for the CD32b measurements.

[6] = molecular target: T4, biotinylated CD32bECDHis (human, UniProt P31994 43-223, limits assumed, biotinylated (sites not given)); assay: competition ELISA, competitor 016
T4 sequence (looked up): T1 sequence (looked up)
Description: (§2) ELISA wells were coated overnight at 4° C. with anti-CD32b HuMabs serially diluted in PBS. The ELISA wells were washed with PBS, blocked for one hour at room temperature with 2% (v/v) chicken serum (Gibco, Paisley, Scotland) in PBS and washed again with PBS. Subsequently, the immobilized antibodies were incubated with biotinylated CD32bECDHis serially diluted in PBSTC. After washing with PBS/Tween, bound biotinylated CD32bECDHis was incubated with Streptavidin-poly-HRP (Sanquin, Amsterdam, The Netherlands) for 1 hr at RT an the reaction was developed as described supra.
(§3) To this end, ELISA wells coated with anti-CD32b HuMabs were incubated in the presence of an excess of CD32b-specific antibody and the predetermined concentration of biotinylated CD32bECDHis in fluid phase. The reaction was developed as described.

[7] = molecular target: T4, biotinylated CD32bECDHis; assay: competition ELISA, competitor 020
Description: as §2, §3

[8] = molecular target: T4, biotinylated CD32bECDHis; assay: competition ELISA, competitor 022
Description: as §2, §3

[9] = molecular target: T4, biotinylated CD32bECDHis; assay: competition ELISA, competitor 024
Description: as §2, §3

[10] = molecular target: T4, biotinylated CD32bECDHis; assay: competition ELISA, competitor 026
Description: as §2, §3

[11] = molecular target: T4, biotinylated CD32bECDHis; assay: competition ELISA, competitor 028
Description: as §2, §3

[12] = molecular target: T4, biotinylated CD32bECDHis; assay: competition ELISA, competitor 034
Description: as §2, §3

[13] = molecular target: T4, biotinylated CD32bECDHis; assay: competition ELISA, competitor 038
Description: as §2, §3

[14] = molecular target: T4, biotinylated CD32bECDHis; assay: competition ELISA, competitor 053
Description: as §2, §3

[15] = molecular target: T4, biotinylated CD32bECDHis; assay: competition ELISA, competitor 063
Description: as §2, §3

[16] = molecular target: T4, biotinylated CD32bECDHis; assay: competition ELISA, competitor 2B6
Description: as §2, §3

EC50 [1]: 0.28 nM | EC50 [2]: 0.25 nM | EC50 [3]: 0.11 nM | IC50 [4]: 0.24 nM | Kd [5]: 1.1 nM | koff [5]: 0.0028 s⁻¹ | kon [5]: 2.66e+06 M⁻¹ s⁻¹
B1: Antibody 016 (antibody, human IgG1, V domains shown)
VH: QVQLVESGGGVVQPGRSLRLSCAASGFTFSSYGIHWVRQAPGKGLEWVAVIGYDGSDKNYADSVKGRFTIFRDNSKNTLYLQMNSLRAEDTAVYYCARDQLGDAFDIWGQGTMVTVSS
VL: EIVLTQSPATLSLSPGERATLSCKASQSVSSSLAWYQQKPGQAPRLLIYDASNRATGIPARFSGSGSGTDFTLTISSLEPEDFAVYYCQQRSNWPPYTFGQGTKLEIKR
notes: Human antibody; also called HuMab 016

% residual binding [6]: 103% | % residual binding [7]: 59% | % residual binding [8]: 29% | % residual binding [9]: 23% | % residual binding [10]: 70% | % residual binding [11]: 49% | % residual binding [12]: 8% | % residual binding [13]: 102% | % residual binding [14]: 79% | % residual binding [15]: 0% | % residual binding [16]: 98% | % of maximal Fab-mediated inhibition [4]: ~70%
B2: Antibody 063 (antibody, human IgG1, V domains shown)
VH: EVQLLESGGGLVQPGGSLRLSCAASGFTFSSYAMSWVRQAPGKGLEWVSAISDSGGSTYYADSVKGRFTISRDNSKNTLYLQMNSLRAEDTAAYYCAKEIAVALFDYWGQGTLVTVSS
VL: B1 VL with K24R, S32Y, N93S
notes: Human antibody; also called HuMab 063

EC50 [3]: 1.06 nM | % residual binding [6]: 98% | % residual binding [7]: 19% | % residual binding [8]: 8% | % residual binding [9]: 6% | % residual binding [10]: 26% | % residual binding [11]: 13% | % residual binding [12]: 4% | % residual binding [13]: 168% | % residual binding [14]: 40% | % residual binding [15]: 43% | % residual binding [16]: 195%
B3: Antibody 053 (antibody, human IgG1, V domains shown)
VH: QVQLVESGGGVVQPGRSLRLSCAVSGFTFRSYGMHWVRQAPGKGLEWVAVIWYDGSIKYYADSVKGRFTISRDNSKNTLYLQMNSLRAEDTAVYFCAREGGRDAFDIWGQGTMVTVSS
VL: AVQLTQSPSSLSASVGDRVTITCRASQGISSALAWYQQKPGKAPKLLIYDASSLESGVPSRFSGSGSGTDFTLTISSLQPEDFATYCCQQFNSYPHTFGGGTKVEIKR
notes: Human antibody; also called HuMab 053
